Consider three molecules from patent US20250270341A1 (Alector, published 2025).

For assay [1], the target named is T1, Full length mouse CD98hc on CHO cells (mouse, UniProt P10852 1-526).
T1 construct: CHO cells stably overexpressing it; also called CHO-mouse CD98hc; CHO-mCD98hc
T1 sequence: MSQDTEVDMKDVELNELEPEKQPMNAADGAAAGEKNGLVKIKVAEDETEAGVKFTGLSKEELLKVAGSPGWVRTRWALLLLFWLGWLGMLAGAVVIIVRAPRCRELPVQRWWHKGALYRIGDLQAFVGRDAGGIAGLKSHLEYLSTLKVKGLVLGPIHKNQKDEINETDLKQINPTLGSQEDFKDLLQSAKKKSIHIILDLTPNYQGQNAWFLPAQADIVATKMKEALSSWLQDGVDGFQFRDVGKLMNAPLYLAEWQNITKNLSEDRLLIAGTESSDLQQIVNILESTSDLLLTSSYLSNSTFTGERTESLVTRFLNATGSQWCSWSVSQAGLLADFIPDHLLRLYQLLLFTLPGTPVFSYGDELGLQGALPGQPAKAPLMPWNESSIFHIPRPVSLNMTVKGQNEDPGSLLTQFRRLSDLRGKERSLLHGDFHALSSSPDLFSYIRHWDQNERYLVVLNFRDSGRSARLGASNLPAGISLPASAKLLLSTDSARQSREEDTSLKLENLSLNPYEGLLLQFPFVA
In words: FACS, hybridoma supernatant. On the technique in general: A flow cytometer gives signals particle by particle.

Assay [2] concerns the target T1, Full length mouse CD98hc on CHO cells. In words: FACS, hybridoma supernatant. The text has this:
The IgG positive hybridoma supernatants (898 in total) were initially screened for their ability to differentially bind CHO cells overexpressing human or mouse CD98hc cells compared to CHO parental cells by FACS. Overexpressing cells were harvested, washed, and labeled with various concentrations and combinations of CellTrace cell proliferation dyes CFSE and Violet (ThermoFisher, Cat #C34554 and Cat #34557, respectively) to create uniquely barcoded cell populations. Barcoded cells (5×10⁴ of each cell population) were aliquoted into 96-well U-bottom plates and incubated with 50 μl of hybridoma cell culture supernatant or 1 μg/ml of commercially available purified mouse anti-human CD98hc monoclonal antibody (Sigma Aldrich, Cat #SAB 4700503) and rat anti-mouse CD98hc antibody (Bio-Rad Laboratories, Hercules, CA, Cat #MCA2684) on ice for 30 minutes. […] Following this secondary antibody incubation, the cells were again washed twice with ice-cold FACS buffer and resuspended in a final volume of 50 μl of FACS buffer containing 0.25 μl/well propidium iodide (BD Biosciences, Cat #556463). Binding intensity on cells was analyzed using the FACS Canto system (BD Biosciences), with sorting gates drawn to exclude dead (i.e., propidium iodide-positive) cells. For each barcoded cell population, the ratio of APC Mean Fluorescence Intensity (MFI) divided by secondary antibody MFI was calculated for each anti-CD98hc hybridoma supernatant tested and reported in Table 5.
This is another data set of the same source.

For the next assay, the target named is T2, muCD98hc ECD Avi-His (mouse, UniProt P10852 100-526).
T2 construct: biotinylated on the Avi tag where captured on streptavidin; also called Mouse CD98-AVI-His; Mouse CD98hc-AVI-His
T2 sequence: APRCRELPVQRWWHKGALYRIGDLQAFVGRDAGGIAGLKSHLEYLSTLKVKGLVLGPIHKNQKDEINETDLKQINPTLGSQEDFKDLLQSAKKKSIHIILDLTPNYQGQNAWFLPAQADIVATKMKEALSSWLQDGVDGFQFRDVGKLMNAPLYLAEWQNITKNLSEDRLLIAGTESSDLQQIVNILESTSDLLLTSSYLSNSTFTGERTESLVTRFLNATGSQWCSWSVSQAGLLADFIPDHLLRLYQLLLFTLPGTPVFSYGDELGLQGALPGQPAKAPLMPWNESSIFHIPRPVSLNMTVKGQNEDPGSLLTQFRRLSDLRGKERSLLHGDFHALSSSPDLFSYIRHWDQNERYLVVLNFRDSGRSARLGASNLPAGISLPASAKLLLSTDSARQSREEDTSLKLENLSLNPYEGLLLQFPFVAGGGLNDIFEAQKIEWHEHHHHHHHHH
In words: ELISA, hybridoma supernatant. How it is done: (§1) Briefly, 96-well polystyrene plates were coated with 5 μg/ml of streptavidin (Thermo Fisher, Cat #PI21125) in coating buffer (0.05M carbonate buffer, pH 9.6, Sigma, Cat #C3041) overnight at 4° C. Coated plates were then blocked with ELISA diluent (PBS+0.5% BSA+0.05% Tween20) for one hour. Blocking buffer was removed and human, cyno, or mouse Avi-His-tagged CD98hc and Avi-His-tagged human TfR polypeptides were added at 1 μg/ml in ELISA diluent and captured for 1 hour at room temperature. After washing three times with 300 μl of PBST (PBS+0.05% Tween20, Thermo 28352), the hybridoma cell culture supernatants or 1 μg/ml of commercially available purified mouse anti-human CD98hc monoclonal antibody (Sigma Aldrich, Cat #SAB 4700503) and rat anti-mouse CD98hc antibody (Bio-Rad Laboratories, Hercules, CA, Cat #MCA2684) were added (50 μl/well) to each well. After 30 minutes of incubation at room temperature, the plates were washed three times with 300 μl of PBST. […] After a final set of washes (3×300 μl in PBST), 50 μl/well of BioFx TMB substrate (Surmodics, Eden Praire, MN, Cat #TMBW-1000-01) was added to the wells. The reaction was then quenched after 5-10 mins with 50 μl/well of 2N sulfuric acid. The plates were read for absorbance at 450 nm on a SpectraMax M5 (Molecular Devices, Sunnyvale, CA) using SoftMax Pro software.
(In general: ELISA stands for enzyme-linked immunosorbent assay.)

Assay [3] has as its target T3, Human TfR-AVI-His (control) (human, UniProt P02786 89-760).
T3 construct: control protein; also called Avi-His-tagged human TfR; human transferrin receptor
Put plainly: ELISA, hybridoma supernatant. How it is done:
as §1

Assay [4] addresses T4, human CD98hc endogenously expressed on HCMEC/D3 cells (human).
T4 construct: human brain endothelial cell line
T4 chain: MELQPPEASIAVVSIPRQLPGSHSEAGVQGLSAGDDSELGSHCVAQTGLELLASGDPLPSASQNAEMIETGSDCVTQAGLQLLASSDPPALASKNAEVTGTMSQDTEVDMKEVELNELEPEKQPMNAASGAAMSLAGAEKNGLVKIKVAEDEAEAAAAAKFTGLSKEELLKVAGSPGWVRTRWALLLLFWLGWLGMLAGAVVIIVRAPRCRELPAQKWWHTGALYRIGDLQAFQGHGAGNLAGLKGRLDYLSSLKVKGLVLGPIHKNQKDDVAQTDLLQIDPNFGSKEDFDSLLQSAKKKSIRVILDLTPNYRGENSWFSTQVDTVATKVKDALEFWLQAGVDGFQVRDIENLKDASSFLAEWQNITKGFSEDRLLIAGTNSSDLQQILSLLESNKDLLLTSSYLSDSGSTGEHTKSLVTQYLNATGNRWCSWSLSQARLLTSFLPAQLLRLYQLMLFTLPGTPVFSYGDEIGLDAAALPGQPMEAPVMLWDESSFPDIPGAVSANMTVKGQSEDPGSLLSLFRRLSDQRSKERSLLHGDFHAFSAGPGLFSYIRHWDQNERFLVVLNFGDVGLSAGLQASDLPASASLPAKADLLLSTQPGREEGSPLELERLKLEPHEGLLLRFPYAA
Put plainly: FACS, hybridoma supernatant.

Assay [5] concerns the target T5, Full length human CD98hc on CHO cells (human).
T5 construct: CHO cells stably overexpressing it; also called CHO-human CD98hc; CHO-huCD98hc
T5 chain: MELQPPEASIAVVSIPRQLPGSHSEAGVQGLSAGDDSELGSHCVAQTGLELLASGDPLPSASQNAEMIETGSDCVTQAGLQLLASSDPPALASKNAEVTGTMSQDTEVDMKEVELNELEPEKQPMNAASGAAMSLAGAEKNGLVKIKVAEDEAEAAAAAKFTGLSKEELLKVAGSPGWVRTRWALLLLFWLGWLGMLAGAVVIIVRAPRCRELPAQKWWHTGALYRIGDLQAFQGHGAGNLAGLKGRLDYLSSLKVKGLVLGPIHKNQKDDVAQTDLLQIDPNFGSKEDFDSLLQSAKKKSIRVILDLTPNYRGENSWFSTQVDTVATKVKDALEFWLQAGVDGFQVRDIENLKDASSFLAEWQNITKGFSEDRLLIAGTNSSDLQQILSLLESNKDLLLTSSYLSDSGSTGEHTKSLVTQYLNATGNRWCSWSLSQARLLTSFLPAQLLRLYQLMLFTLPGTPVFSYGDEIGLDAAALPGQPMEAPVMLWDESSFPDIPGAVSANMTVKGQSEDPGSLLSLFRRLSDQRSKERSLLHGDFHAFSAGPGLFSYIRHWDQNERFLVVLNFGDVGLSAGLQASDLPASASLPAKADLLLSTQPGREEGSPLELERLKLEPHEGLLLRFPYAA
In words: FACS, hybridoma supernatant.

T3 sequence (P02786 89-760 limits assumed): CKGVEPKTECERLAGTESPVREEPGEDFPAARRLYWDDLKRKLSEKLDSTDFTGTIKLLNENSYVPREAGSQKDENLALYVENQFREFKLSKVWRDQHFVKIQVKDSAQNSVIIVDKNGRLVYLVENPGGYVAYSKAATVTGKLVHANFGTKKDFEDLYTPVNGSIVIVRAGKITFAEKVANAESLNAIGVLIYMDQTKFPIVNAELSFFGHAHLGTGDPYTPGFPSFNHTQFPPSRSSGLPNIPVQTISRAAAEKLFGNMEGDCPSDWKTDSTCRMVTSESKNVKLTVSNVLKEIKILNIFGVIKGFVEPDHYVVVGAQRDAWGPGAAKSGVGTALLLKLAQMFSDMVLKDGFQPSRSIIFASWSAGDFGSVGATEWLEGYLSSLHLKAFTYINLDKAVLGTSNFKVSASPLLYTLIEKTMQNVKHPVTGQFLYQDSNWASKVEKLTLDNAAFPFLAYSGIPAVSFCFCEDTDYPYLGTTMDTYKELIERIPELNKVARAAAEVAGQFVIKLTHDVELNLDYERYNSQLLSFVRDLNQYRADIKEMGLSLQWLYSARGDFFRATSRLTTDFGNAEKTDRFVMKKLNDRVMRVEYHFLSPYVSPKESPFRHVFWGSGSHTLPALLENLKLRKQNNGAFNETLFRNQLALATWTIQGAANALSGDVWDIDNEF

B1: CD98HC.04.047 (antibody, V domains shown)
VH: EVQLQESGPSLVKPSQTLSLTCSVTGDSITSGYWNWIRKFPGNKLEYMGYISYSGSTYYNPSLKGRVSITRDTSKNQYYLQLNSVTTEDTATYYCQRHVIYDYTWFAYWGQGTLVTVSA
VL: QIVLTQSPAIMSASPGEKVTISCSASSSVGYMYWLQQKPGSSPKPWIYRTSILASGVPARFSGSGSGTSYSLTISSMEAEDAATYYCQQYQSYPLTFGAGTKLELK
notes: hybridoma IgG
With B1, in assay [1], the “MFI ratio over secondary antibody” value was determined as 1.2. Moreover, in assay [2], the binding result is “no binding”. Further, the OD450 with muCD98hc ECD Avi-His came to 0.103; in assay [3], 0.0949.

B2: CD98HC.04.065 (antibody, V domains shown)
VH: EVQLQESGPSLVKPSQTLSLTCSVTGDSITSGYWNWIRKFPGNKLEYMGYISYSGRTYYNPSLKSRVSITRDTSKNQYYLQLNSVTTEDTATYYCQRHVIYDYTWFAYWGQGTLVTVSA
VL: QIVLTQSPAIMSASPGEKVTISCSASSSVHYMYWFQQKPGSSPKPWIYRTSILASGVPDRFSGSGSGTSYSLTISSMEAEDAATYYCQQYQSYPLTFGAGTKLELK
notes: hybridoma IgG
B2: in assay [1], the “MFI ratio over secondary antibody” value came to 1.2. Besides, the binding result in assay [2] is “no binding”. Besides, the OD450 with muCD98hc ECD Avi-His was 0.0984; in assay [3], 0.1.

B3: CD98HC.04.054 (antibody, V domains shown)
VH: QVQLQQSAAELARPGASVKMSCETSGYTFTRYTMNWVKQRPGQGLDWIGYINPSSGYAEYNQKFRGKTTLTADKSSSTAYIQLNSLTSEDSAVYYCVRYDGNYVYWGQGTTLTVSS
VL: DIVMTQSQKFMSTSFGDRVDITCKASQNVGSAVAWYQQKPGQSPKLLIYSASNRYTGVPDRFTGSGSGTDFTLTINNMQSADLADYFCQQYNFYPLTFGAGTKLDLK
notes: hybridoma IgG
Take B3: the “MFI ratio over secondary antibody” value in assay [4] is 218; in assay [1], 1.2; in assay [5], 52. Moreover, in assay [2], the binding result is “no binding”.
